Measured values published in US20200254116A1.
One block for each binder: values may come before it. Non-standard residues stand in square brackets, D forms with d. No end group written: not given here. *: point of attachment. Phe(4-I) = N[C@@H](Cc1ccc(I)cc1)C(=O)O; Fmoc = O=C(OCC1c2ccccc2-c2ccccc21)*

Substrate: FBS (fetal bovine serum) proteins
Test: FBS protein binding assay: 25 uM agent in 100% FBS, Amicon 10 K cutoff ultrafiltration, fluorescence of fractions

percent bound: 70%
B1: 4Iphf-HN18-IR800 (peptide)
peptide: Fmoc-[Phe(4-I)]LPNSNHIK(IRDye800)QGL

percent bound: 52%
B2: HN1-IR800 (peptide)
peptide: TSPLNIHNGQK(IRDye800)L
